Measured values: patent US12472269B2, “Liver-specific inducible promoters and methods of use thereof” (ASKBIO INC., priority 2019, dated 2025)

What was measured:
Type in all cases: cell-based, human
[1] = system: Huh7 cells; test: Luciferase expression from PB1-MinTK construct in Huh7 cells transfected with CAR plasmid, induction by TCPOBOP
From the text: • Huh7 cells which are a human liver cell line • DPBS: without CaCl2, without MgCl2 (Gibco, 14190-094) • DMEM (Sigma, D6546) • FBS (Sigma, F9665) • Pen-Strep (Sigma, P4333) • Promega Fugene-HD (E2311) • TCPOBOP (Sigma, T2320) • CITCO (Cayman Chemicals Company, 16027) • pcDNA6 plasmid which contains the β-galactosidase gene used as internal control for transfection efficiency (Thermofisher, V22020) • mouse CAR expression plasmid from Jouan et al, 2016 (BioCat GmbH, EX-Z4288-M51-10-GC). This was used as Huh7 is CAR deficient. • β-galactosidase substrate solution (Thermofisher, 75707/75710) • Pierce BCA kit (23225) • LARII (Dual Luciferase Reporter 1000 assay system, Promega, E1980) • EPO ELISA kit (Abcam, ab119522) Method: Day 1 • Cells were seeded onto a 48 well plate at a density of 25,000 cells/300 μl Day 2 • On the day of transfection, DNA to be transfected (CAR plasmid/PB1-MinTK operably linked with luciferase or EPO/pcDNA6 plasmid for internal control) was diluted to a 100 ng/μl stock solution. Per 48 Well Transfection: • 45 ng of DNA (15 ng of each plasmid, pcDNA6, CAR and test plasmid) was mixed with 4.1 μl of Optimem medium. • 0.5 μl of Fusion HD was mixed with 4 μl of Optimem medium. • These 2 solutions were mixed and incubated at room temperature for 15 minutes. • The final solution was then added to the well drop wise. • 3 hrs after transfection, the inducer TCPOBOP was added to the appropriate wells at the indicated concentration. Day 3 • 24 hrs after induction the media was removed from the cells. • The cells were washed once in 300 μl of DPBS • Cells were lysed using 100 μl of passive lysis buffer and incubation with rocking for 15 minutes • The cell debris was pelleted by centrifugation of the plate at max speed in a benchtop centrifuge for 1 min • For luciferase, 10 μl sample was transferred into white 96-well plate and luminescence measured by injection of 50 μl of LARII substrate. • β-galactosidase activity was measured as per manufacturer's instructions (Mammalian β-Galactosidase Assay Kit, 75707/75710, Thermo Scientific) using 25 μl of lysate. 25 μl of lysate was transferred into a microplate well and mixed with 25 μl of β-galactosidase Assay Reagent, equilibrated to room temperature. The mixture was incubated at 37° C. for 30 min and absorbance measured at 405 nm. • Protein concentration was measured as per manufacturer's instructions (Pierce™ BCA Protein Assay Kit, 23225/23227, Thermo Scientific) using 25 μl of lysate. 25 μl of lysate was transferred into a microplate well and mixed with 200 μl of working solution. The mixture was incubated at 37° C. for 30 min, cooled to room temperature and then absorbance measured around 562 nm. The protein concentration was calculated with respect to protein standard curve prepared from assaying standards with known protein concentration.
Luciferase readouts were normalised to both β-galactosidase and protein concentration in the lysate to produce normalised relative luminometer units (RLUs).
To compare across experiments the strength of the promoters was compared to CMV-IE promoter which was driving the same gene as the PBREM-containing constructs, which is included in every experiment.
The PB1-MinTK construct was cloned into the vector pGL4.10 using the KpnI and NcoI restriction sites. This places the promoters directly upstream of the firefly luciferase reporter gene. The PB1-MinTK construct contains the 51 bp enhancer and the MinTK minimal promoter from Herpes Thymidine kinase gene.

[2] = system: Huh7 and ARE primary cells; test: Effect of AAV ITRs: pAAV constructs transfected into Huh7 and ARE primary cells, compared with pGL4.10; conditions: mean of 3 biological replicates
From the text: Following from Example 3, it was decided to take PB1-MinTK and PB1-2-MinTk forward for in vivo studies. To facilitate this the two aforementioned constructs were cloned into pAAV vector (Takara, Clontech) to allow for the preparation of AAV viruses. The inserts where cloned using restriction digest of the pAAV plasmid and PCR amplification of the original pGL4.10 constructs.
We investigated the effect of the Inverted Terminal Repeats (ITRs) on the activity of the promoters. This was done as we have observed interference from the AAV ITRs in other projects. To this end, the pAAV-PB1-MinTk and pAAV-PB1-2-MinTk were transfected into Huh7 and ARE primary cells as previously described and their activity assessed.

[3] = system: AXOL ARE hepatocytes; test: Luciferase expression from pAAV constructs in AXOL ARE hepatocytes without CITCO, with CITCO and after CITCO withdrawal; conditions: pAAV vector
Protocol: Luciferase expression from the PB1-MinTK and PB1-2-MinTK constructs in the pAAV vector in AXOL ARE hepatocytes is inducible by CITCO (1 μM) but reduces after removing CITCO as shown in FIG. 5.

B1: PB1-MinTK: promoter: single mouse PBREM element and MinTK minimal promoter, SEQ ID NO: 7 (nucleic acid)
DNA: TCTGTACTTTCCTGACCTTGGCACAGTGCCACCATCAACTTGCCTGACACCGATCCGGCCCCGCCCAGCGTCTTGTCATTGGCGAATTCGAACACGCAGATGCAGTCGGGGCGGCGCGGTCCGAGGTCCACTTCGCATATTAAGGTGACGCGTGTGGCCTCGAACACCGAGCGACCCTGCAGCGACCCGCTTAACAGCGTCAACAGCGTGCCGCAGATCTCGAGGAGCTTGGCGAGATTTTCAGGAGCTAAGGAAGCTAAAC
modifications: PB1-MinTK
induction of the promoter (luciferase) ([1]; 50 nM or 150 nM TCPOBOP, 24 hrs after induction): up to 6 fold
response of the promoter (luciferase) ([1]; 250 nM TCPOBOP): did not illicit a response
luciferase expression as ratio of CMV-IE promoter ([1]; TCPOBOP induced, one PBREM element with MinTK): 40%
luciferase activity from the promoter (leaky expression) ([1]; cells treated with vehicle (DMSO)): very little measurable luciferase activity
luciferase activity ([1]; no CAR transfected, 150 nM TCPOBOP): no measurable activity
luciferase expression ([1]; presence of CAR and 150 nM TCPOBOP): high
induction of luciferase expression across pGL4.10 and pAAV vectors and cell types [2]: comparable across vectors and cell types
luciferase expression with CITCO ([3]; CITCO (1 μM)): inducible
activity of the promoter after removal of CITCO ([3]; CITCO withdrawal): almost baseline levels
